Laboratory results reported in publication PMC7954794, “Protein context shapes the specificity of SH3 domain-mediated interactions in vivo” (Nature Communications, 2021).

B1: YLR206W (protein, UniProt Q05785 1-613, looked up)
Epsin-2: MSKQFVRSAKNMMKGYSSTQVLVRDATANDSRTPSIDTLDDLAQRSYDSVDFFEIMDMLDKRLNDKGKYWRHVAKSLTVLDYLVRFGSENCVLWCRENFYVIKTLREFRHENESGFDEGQIIRVKAKELVSLLNDEERLREERSMNTRNRRANRAARPRPRRQRTRSNPHDSSPSYQDDLEKALEESRITAQEDEQRRRELAQYDDEDPDFQAALQLSKEEEELKQLQELQRLQKQQQSLSQFQAPLQQQQPQQQPAYYDIFGNPISQDEYLQYQYQQDQEQAMAQQRWLDQQQEQQQLAEQQYFQQQQQAAAAASALQQQQTAANMQQQQQQPADFQQPLPTGSNNPFSMDNLERQKQEQQHAQLQRQQEEARQQQEQLKLQQLQRQQQEEAQLHQKRQEEAQLQQQQAQLLQQQAQFQQQQPLKQTRTGNQSISDKYSDLNTLLATGTGIDTFGNTGEARIPAQHTKTGTFINSQGTGYKQVTNEPKNNPFLSNQYTGLPSTNIVPTQTGYGFGNQPQSPPTNSPQQNPTGISYSQPQQQQQPQQQPQYMQNFQQQQPQYAQNFQQQPQYTQNYQQQPQYIQPHQQQQQQQQQQQQQQGYTPDQGVSLIDL
B2: YKR001C (protein, UniProt P21576 1-704, looked up)
Vacuolar protein …: MDEHLISTINKLQDALAPLGGGSQSPIDLPQITVVGSQSSGKSSVLENIVGRDFLPRGTGIVTRRPLVLQLINRRPKKSEHAKVNQTANELIDLNINDDDKKKDESGKHQNEGQSEDNKEEWGEFLHLPGKKFYNFDEIRKEIVKETDKVTGANSGISSVPINLRIYSPHVLTLTLVDLPGLTKVPVGDQPPDIERQIKDMLLKYISKPNAIILSVNAANTDLANSDGLKLAREVDPEGTRTIGVLTKVDLMDQGTDVIDILAGRVIPLRYGYIPVINRGQKDIEHKKTIREALENERKFFENHPSYSSKAHYCGTPYLAKKLNSILLHHIRQTLPEIKAKIEATLKKYQNELINLGPETMDSASSVVLSMITDFSNEYAGILDGEAKELSSQELSGGARISYVFHETFKNGVDSLDPFDQIKDSDIRTIMYNSSGSAPSLFVGTEAFEVLVKQQIRRFEEPSLRLVTLVFDELVRMLKQIISQPKYSRYPALREAISNQFIQFLKDATIPTNEFVVDIIKAEQTYINTAHPDLLKGSQAMVMVEEKLHPRQVAVDPKTGKPLPTQPSSSKAPVMEEKSGFFGGFFSTKNKKKLAALESPPPVLKATGQMTERETMETEVIKLLISSYFSIVKRTIADIIPKALMLKLIVKSKTDIQKVLLEKLYGKQDIEELTKENDITIQRRKECKKMVEILRNASQIVSSV
B3: YIL095W (protein, UniProt P40494 1-810, looked up)
Actin-regulating kinase PRK1: MNTPQISLYEPGTILTVGSHHAKIIKYLTSGGFAQVYTAEISPPDPYSNANIACLKRVIVPHKQGLNTLRAEVDAMKLLRNNKHVVSYIDSHAARSVNGIAYEVFVLMEFCERGGLIDFMNTRLQNRLQESEILEIMSQTVQGITAMHALQPPLIHRDIKIENVLISHDGLYKVCDFGSVSGVIRPPRNTQEFNYVQHDILTNTTAQYRSPEMIDLYRGLPIDEKSDIWALGVFLYKICYYTTPFEKSGEAGILHARYQYPSFPQYSDRLKNLIRLMLMEAPSQRPNICQVLEEVSRLQNKPCPIRNFYLLRAMNQNANTQLAGEPSSTTYVPTQKFIPVQSLQSINQPPNMMPVTHVSTTPNLGTFPISINDNNKTEVTAHAGLQVGSHSNLTSPLMKTKSVPLSDEFASLYYKELHPFQKSQTFKSVESFQSPQRKSMPPLSLTPVNNDIFDRVSAINRPNNYVDSETQTIDNMAVPNLKLSPTITSKSLSSTKEIAAPDNINGSKIVRSLSSKLKKVITGESRGNSPIKSRQNTGDSIRSAFGKLRHGFTGNSVNNSRSASFDNNNVNGNGNNTNRRLVSSSTSSFPKFNSDTKRKEESDKNQRLEKRRSMPPSILSDFDQHERNNSRTGSRDYYRSHSPVKKTQASAKTTSKPTLIPDNGNVNINQEKKESIQRRVHNLLKSSDDPVTYKSASGYGKYTDIGTETSNRHSSVRITPITEEKFKKTLKDGVLDIKTKSNGKDKSRPPRPPPKPLHLRTEIQKIRNFSRLQSKKLPIERISSEATETIVDVNVDDLEADFRKRFPSKV
B4: YJL201W (protein, UniProt P32525 1-599, looked up)
Protein ECM25: MIDINVNNIFFRSYSVDPNSGHAIYVFDSTYLPASDEIGDKQVYDLLINALMDRLVMKLPQAPYSLVIFSSGFSQRKISWVYGIKMFAKLPKETKFYLQKIFIVHESFFVRSVYQVISNAMNFNFLDSKDSQHDFPSLVHVLDLTSLSELIDITRLRISLNVYLYDYQIREHINVPEEYYNRLTPLAIRQYRQLVFDKIFKKLQNDALLCELIFQKPGNYKKVNIFLDIIKRNNYIDLSQWDIYSLASVWLNYFIKNKAKPLIPIELIPLPIVDDLKFTSETFRKIIKFNQYQDLFMVIIPFFNRIIAHGESTKHDSRTLSKALTPALCKEKLSMMTNDRLAIGSRYIKNLLDFFPEIAKEISSPPSSVSSSSTIPVLPKPRKSSPTRYSELGCLTLPRSRSPSPQRSVTSPTYTPVALQNTPVLKPKSSSRNVSSPSFNAKPPLPIKAVTRPQLSLTSNSNTDLALASSSTDTLSSPTKTPSADSLPLSNSSTDLTISDNIKEMVKDEPAKDKNSVETDIFVQQFESLTLVQNAKIKKFDKELQEKKKKNETTSKTADKFSQKGYSDIKASNKVSRLAALYEERLQGLQVMNEMKQRW
B5: YGR037C (protein, UniProt P31787 1-87, looked up)
Acyl-CoA-binding protein: MVSQLFEEKAKAVNELPTKPSTDELLELYALYKQATVGDNDKEKPGIFNMKDRYKWEAWENLKGKSQEDAEKEYIALVDQLIAKYSS

The molecules below were run on ABP1 (assay: DHFR-PCA on solid medium, bait ABP1 (Fig. 1B)). Conditions: bait ABP1, label = prey; 2-4 replicates.
Format: cell-based, Saccharomyces cerevisiae
Excerpt: Supplement 41467_2021_21873_MOESM8_ESM.xlsx, sheet "Fig1B" | column: medsize; medrep; Ratio; Score
B1 was tested, and the “medrep (log2 median colony size normalized to plate background, PCA score)” value was 2.696. With B2 the “medrep (log2 median colony size normalized to plate background, PCA score)” value was 2.787. In the case of B3, the “medrep (log2 median colony size normalized to plate background, PCA score)” value is reported as 4.25. With B4 the “medrep (log2 median colony size normalized to plate background, PCA score)” value was 3.816. B5 was tested, and the “medrep (log2 median colony size normalized to plate background, PCA score)” value was 3.115.

The molecules below were run on 575 putative partners (preys) of 22 WT SH3-containing proteins (assay: DHFR-PCA on solid medium, WT and SH3-deleted baits (Fig. 1B)). Conditions: bait SLA1-2, DHFR-PCA, label = prey; Replicates 4 (2 for YCR009C, YDR388W).
Format: cell-based, Saccharomyces cerevisiae
Parameters: key to Score: 0: SH3-independent; 1: SH3-dependent PPIs; 2: SH3-inhibited PPIs
Excerpt: To assess the requirement of SH3 domains for PPIs in vivo, we first measured binary interactions between 22 WT SH3-containing proteins (Supplementary Fig. 1A) as baits and 575 putative partners from their interconnected signaling networks using the dihydrofolate reductase protein–fragment complementation assay (DHFR-PCA) in the budding yeast Saccharomyces cerevisiae. About 33% (202/607) of the PPIs detected were described before, mostly by direct methods (Supplementary Fig. 1B, C)[11]. We repeated the experiments with baits in which the SH3s were individually replaced with a flexible linker by genome editing (SH3 domain deletion/stuffing, Fig. 1A). The stuffer DNA sequence ([…]) codes for a small flexible poly-Gly with Ser peptide ([…]) that is inspired by previous experiments[12],[13]. About a third of the SH3-containing protein interactome is qualitatively or quantitatively SH3-dependent (171 PPIs out of 607, Fig. 1B and Supplementary Fig. 1B, C). We validated the vast majority of the quantitative changes in low-throughput experiments and excluded that this is simply due to changes in protein abundance in most cases (Supplementary Fig. 1D–G). SH3-binding motifs[14] are more frequent in the SH3-dependent PPI partners when compared to sequences from random proteins, SH3-independent PPI partners or PPI partners that are stronger or gained following SH3 deletions (p values = 1.5 × 10^−17, 0.0038 and 2.1 × 10^−08, respectively; Mann–Whitney test, one-tailed, Fig. 1C). The changes we measure are therefore enriched for PPIs that depend on the direct interactions of the domains with the PPI partners.
The complete list of strains, primers, and gRNAs used in this study can be found in Supplementary Tables 1–3. All constructed yeast strains were validated by polymerase chain reaction (PCR) and confirmed by Sanger sequencing of the locus of interest. Bait strains for the DHFR-PCA experiments were constructed as follows. The genes of interest were fused at their genomic 3′ end by replacing the stop codon with a linker ([…]), the DHFR F[1,2] followed by a smaller linker (GGGGS), a 1× FLAG tag ([…]) and the NATMX4 resistance cassette via homologous recombination (all amplified from pAG25-DHFR[1,2]-linker-FLAG). The set of 615 prey strains (DHFR F[3] fusions in the BY4742 background) were retrieved from the Yeast Protein Interactome Collection[43] with the exception of 73 that were reconstructed (Supplementary Tables 1 and 2). Knockout strains were taken from the yeast knockout collection except for ABP1, BEM1, BZZ1, and SLA1, which were reconstructed by replacing the ORFs with the NATMX4 resistance cassette by homologous recombination in the BY4741 background.
Yeast SH3 domain genomic sequences were replaced by CRISPR–Cas9 genome editing. Each SH3 domain (as defined by the SMART database V8.0 except for Ysc84 SH3 (as defined by PROSITE), see Source Data for all SH3 sequences and Supplementary Table 1 for primers used) was specifically targeted by one gRNA[46]. Yeast competent cells were co-transformed with a pCAS plasmid (Addgene plasmid 60847[47]) expressing both the gRNA of interest and Streptococcus pyogenes Cas9[46] and a donor DNA sequence (stuffer) with 60 bp homology arms surrounding the SH3 DNA sequence. The Stuffer DNA was either PCR amplified or digested from a plasmid. The stuffer DNA sequence ([…]) codes for a small flexible linker ([…]) inspired by protein linkers used in structural biology[12],[13]. This type of linker is frequently used for fusing proteins without affecting the structure of the linked proteins.
The overall DHFR-PCA pipeline is based on Tarassov et al.[43] and the procedures have also been published as a visualized protocol. The screens were performed with robotically manipulated pin tools (BM5-SC1, S&P Robotics Inc.). First, the preys were cherry-picked from 96-well plates to omnitrays in a 384 format on YPD + HPH solid media. […]
In the case of B1, the “medrep (log2 median colony size normalized to plate background, PCA score)” value is reported as 2.135. In the case of B2, the “medrep (log2 median colony size normalized to plate background, PCA score)” value is reported as 1.835. For B3, the “medrep (log2 median colony size normalized to plate background, PCA score)” value was 1.8519. In the case of B4, the “medrep (log2 median colony size normalized to plate background, PCA score)” value is reported as 1.384. For B5, the “medrep (log2 median colony size normalized to plate background, PCA score)” value was 1.385.

Same assay, conditions: bait SLA1-2, label = prey
Molecule B1 has a Score of 1. B2 showed a Score of 1. Work on B3 yielded a Score of 1. With B4 the Score was 1. For B5, the Score was 1.

Same assay, conditions: bait SLA1-2, label = prey; only significant differences shown; PPIs completely lost have a ratio of 0.1, gained PPIs 2.5
B1 was tested, and the “Ratio (SH3-deleted/WT medrep)” value was 0.1. For B2, the “Ratio (SH3-deleted/WT medrep)” value was 0.1. With B3 the “Ratio (SH3-deleted/WT medrep)” value was 0.1. B4 was tested, and the “Ratio (SH3-deleted/WT medrep)” value was 0.1. In the case of B5, the “Ratio (SH3-deleted/WT medrep)” value is reported as 0.1.

Same assay, conditions: bait SLA1-3, DHFR-PCA, label = prey; Replicates 4 (2 for YCR009C, YDR388W, YIL033C)
For B1, the “medrep (log2 median colony size normalized to plate background, PCA score)” value was 2.135. For B2, the “medrep (log2 median colony size normalized to plate background, PCA score)” value was 1.835. For B3, the “medrep (log2 median colony size normalized to plate background, PCA score)” value was 1.8519. In the case of B4, the “medrep (log2 median colony size normalized to plate background, PCA score)” value is reported as 1.384. B5 was tested, and the “medrep (log2 median colony size normalized to plate background, PCA score)” value was 1.385.

Same assay, conditions: bait SLA1-3, label = prey
Work on B1 yielded a Score of 0. In the case of B2, the Score is reported as 0. Work on B3 yielded a Score of 0. B4 showed a Score of 0. B5 was tested, and the Score was 1.

Same assay, conditions: bait SLA1-3, label = prey; only significant differences shown; PPIs completely lost have a ratio of 0.1, gained PPIs 2.5
In the case of B5, the “Ratio (SH3-deleted/WT medrep)” value is reported as 0.1.
